Results taken from article PMC6530877 (PLoS Pathogens, 2019).

Experiments:
Assay in all cases: ELISA; Fab fragments (IGH526, HCV1) coated ~2 μg per well; purified E1E2-DHD15 or E1E2-Fc serially diluted in 25 mM Tris, 150 mM NaCl, pH 7.4, 0.05% Tween-20, 1% BSA; detection by anti-FLAG M2 and/or HRP anti-mouse IgG
Conditions in all cases: both partners purified
[1] = target: T1, E1E2-Fc heterodimer (HCV E1 and E2 ectodomains, Fc-tagged), mammalian cell expressed (hepatitis C virus genotype 1b, Con1, UniProt Q9WMX2)
T1 construct: source: HEK293F, transient (pMlink), secreted, purified

[2] = target: T2, E1E2-DHD15 heterodimer (HCV E1 and E2 ectodomains with the de novo designed heterodimeric tag DHD15), insect … (hepatitis C virus genotype 1b, Con1, UniProt Q9WMX2)
T2 construct: source: High-5 insect cells (baculovirus), secreted, purified (Ni-NTA, Flag M2, SEC)

[3] = target: T3, E1E2-DHD15 heterodimer (HCV E1 and E2 ectodomains with the de novo designed heterodimeric tag DHD15), … (hepatitis C virus genotype 1b, Con1, UniProt Q9WMX2)
T3 construct: source: HEK293F, transient (pMlink), secreted, purified

[4] = target: T4, E1E2-Fc oligomer (oligomeric SEC fraction of Fc-tagged HCV E1E2), expressed in HEK293 cells (hepatitis C virus genotype 1b, Con1, UniProt Q9WMX2)
T4 construct: also called E1E2 oligomer; oligomeric E1E2; source: HEK293F, transient (pMlink), secreted, purified (oligomer peak of the SEC)

Measured: binding result

B1: Fab fragment of neutralizing antibody HCV1 (Fab, V domains shown)
VH: EVQLLESGGGVVQPGRSLRLSCTASGFTFNNYGMHWVRQTPGKGLEWLAVIWFDENNKYYADSVRGRFTISRDNSKNTLFLQMNSLKTEDTAMYYCARDISLVRDAFIYFDFWGLGTLVTVSS
VL: ELTLTQSPATLSLSPGERATLSCRASQSVSSYLAWYQQKPGQAPRLLIYDASNRATGIPARFSGSGSGTDFTLTISSLEPEDFAVYYCQQRSNWITFGQGTRLEIK
notes: source: HEK293F, transient (pMlink), purified
binds: all assays above
